In patent US20220017612A1 (TILOS THERAPEUTICS, published 2022):

T1: human LAP-TGFβ3 overexpressed on HT1080 cells (human, UniProt P10600 24-412)
T1 construct: also called HT1080-huB3
T1 sequence: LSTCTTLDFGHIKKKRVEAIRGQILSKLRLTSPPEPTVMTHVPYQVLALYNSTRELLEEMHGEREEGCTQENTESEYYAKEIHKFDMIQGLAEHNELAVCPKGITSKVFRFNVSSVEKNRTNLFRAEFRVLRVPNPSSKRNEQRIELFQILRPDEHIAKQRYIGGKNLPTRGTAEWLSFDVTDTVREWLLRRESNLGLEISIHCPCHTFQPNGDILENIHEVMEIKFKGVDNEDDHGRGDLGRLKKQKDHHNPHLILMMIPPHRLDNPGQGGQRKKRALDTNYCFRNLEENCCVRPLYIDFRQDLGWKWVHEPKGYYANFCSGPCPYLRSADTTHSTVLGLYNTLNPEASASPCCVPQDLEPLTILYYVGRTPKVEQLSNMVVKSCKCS


Assays:
[1] = molecular target: human LAP-TGFβ1 overexpressed on cells (human, UniProt P01137 30-390); test: cell-based or functional assay
[2] = molecular target: T2, human-chicken LAP-TGFβ1 chimera #2.2 on HT1080 cells (human/chicken chimera, UniProt P01137 30-390); test: flow cytometry, HT1080 cells; grey bar = no anti-LAP antibody
T2 construct: also called HT1080-ch2.2
Description: (§1) This Example describes the binding of anti-LAP antibodies to LAP-TGFβ isoforms and LAP-TGFβ variants. In addition to antibodies 28G11_hIgG1, 22F9_hIgG1, and 20E6_hIgG1, anti-LAP antibodies 17G8_hIgG1, 24E3_hIgG1, and 2C9_(hyb) were also tested in this experiment. Briefly, 4×10⁵ each of (a) HT1080 cells, (b) HT1080 cells overexpressing human LAP-TGFβ1, (c) HT1080 cells overexpressing human LAP-TGFβ2, (d) HT1080 cells overexpressing human LAP-TGFβ3, (e) HT1080 cells overexpressing murine LAP-TGFβ1, (f) P3U1 cells, (g) P3U1 cells overexpressing LAP-TGFβ1 and GARP, and (h) P3U1 cells overexpressing LAP-TGFβ1 and LRRC33 were cultured in 96-well plates. The plates were centrifuged for 5 min at 1,500 rpm, liquid was removed, and cells were resuspended with 200 μL FACS buffer. The plates were centrifuged again, diluted primary antibody was added to each well, and the plates were incubated on ice for 20 minutes, followed by centrifugation. The cells were resuspended in 200 μL FACS buffer, centrifuged again, and resuspended in 50 μL diluted secondary antibody (Alexa647-anti-Human IgG or APC-anti-Mouse IgG). The plates were incubated on ice for 20 minutes in the dark, washed twice with 200 μL FACS buffer, and cells from each well (in 200 μL FACS buffer) were read on the Attune NXT instrument.
(§2) Cells were processed for flow cytometry in the same manner described above for the isoform-specific binding experiments.

[3] = molecular target: T3, human LAP-TGFβ1 with a Y74T mutation on HT1080 cells (human, UniProt P01137 30-390); test: as above
T3 construct: also called HT1080-Y74T; open conformation
Description: as §1, §2

[4] = molecular target: T4, LAP-only variant of human TGFβ1 (empty LAP) on HT1080 cells (human, UniProt P01137 30-277); test: as above
T4 construct: LAP without the mature cytokine; also called HT1080-emptyLAP; LAP-only construct
Description: as §1, §2

[5] = molecular target: T5, human LAP-TGFβ1 with K27C and Y75C mutations on HT1080 cells (human, UniProt P01137 30-390); test: as above
T5 construct: also called closed conformation
Description: as §1, §2

[6] = molecular target: T6, human-chicken LAP-TGFβ1 chimera #2.3 on HT1080 cells (human/chicken chimera, UniProt P01137 30-390); test: as above
T6 construct: also called HT1080-ch2.3
Description: as §1, §2

[7] = molecular target: T7, murine LAP-TGFβ1 with a C-terminal polyhistidine purification tag (mouse, UniProt P04202 30-390); test: BLI, antibody on tip, 1:1 model
T7 construct: also called Mouse LAP-TGFβ1
Description: (§3) The chimeric antibodies were biotinylated using EZ-Link SulfoNHS-LC-Biotin (ThermoFisher). A streptavidin-functionalized tip was equilibrated in binding buffer (10 mM sodium phosphate, 150 mM sodium chloride, 1% (w/v) bovine serum albumin, 0.05% (w/v) sodium azide, pH 7.4). The tip was dipped in a 10 μg/mL solution of biotinylated, chimeric anti-LAP in binding buffer for 15 seconds to load the tip with antibody. The antibody-loaded tip was then washed in binding buffer and placed in a solution containing 0-24 nM of LAP-TGFβ1 (either a fusion protein containing a human IgG1 Fc domain fused to human LAP-TGFβ1 or a murine LAP-TGFβ1 with a C-terminal polyhistidine purification tag). The antigen was allowed to bind to antibody for 5 minutes (association phase), and then the tip was moved to binding buffer (dissociation phase). The association and dissociation phases were fit to a 1:1 binding model to determine the binding rate constants.

[8] = molecular target: T8, fusion protein of a human IgG1 Fc domain and human LAP-TGFβ1 (human, UniProt P01137 30-390); test: BLI, antibody on tip, 1:1 model
T8 construct: printed both as Fc-huB1 and LAP-TGFβ-Fc; also called Fc-huB1; Fc-human LAP
Description: as §3

[9] = molecular target: T1, human LAP-TGFβ3 overexpressed on HT1080 …; test: flow cytometry titration, HT1080-huB3 cells
Description: as §1

T8 sequence (P01137 30-390 limits assumed): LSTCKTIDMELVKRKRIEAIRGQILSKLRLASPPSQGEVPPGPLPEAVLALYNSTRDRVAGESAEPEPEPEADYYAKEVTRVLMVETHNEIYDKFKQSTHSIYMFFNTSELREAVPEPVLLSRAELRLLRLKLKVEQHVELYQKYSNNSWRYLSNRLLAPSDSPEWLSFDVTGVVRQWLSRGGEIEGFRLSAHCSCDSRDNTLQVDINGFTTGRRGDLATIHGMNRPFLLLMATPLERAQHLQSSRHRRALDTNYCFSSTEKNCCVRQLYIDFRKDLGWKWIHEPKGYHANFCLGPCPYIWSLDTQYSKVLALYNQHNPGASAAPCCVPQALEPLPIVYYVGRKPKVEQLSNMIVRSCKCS
T7 sequence (P04202 30-390 limits assumed): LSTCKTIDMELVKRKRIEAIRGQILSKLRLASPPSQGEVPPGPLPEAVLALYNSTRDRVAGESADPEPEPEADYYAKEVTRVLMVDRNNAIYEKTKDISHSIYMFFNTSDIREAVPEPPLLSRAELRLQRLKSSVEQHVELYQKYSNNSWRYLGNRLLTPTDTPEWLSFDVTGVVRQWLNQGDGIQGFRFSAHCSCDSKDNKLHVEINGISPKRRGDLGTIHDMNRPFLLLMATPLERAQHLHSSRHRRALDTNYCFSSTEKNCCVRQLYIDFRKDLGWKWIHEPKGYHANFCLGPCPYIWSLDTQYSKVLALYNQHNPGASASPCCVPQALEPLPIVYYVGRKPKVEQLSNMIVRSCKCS
Chain of human LAP-TGFβ1 overexpressed on cells (P01137 30-390): as the sequence (P01137 30-390 limits assumed) above
T2 sequence (P01137 other isoform, or with tags, fused parts or gaps mutant): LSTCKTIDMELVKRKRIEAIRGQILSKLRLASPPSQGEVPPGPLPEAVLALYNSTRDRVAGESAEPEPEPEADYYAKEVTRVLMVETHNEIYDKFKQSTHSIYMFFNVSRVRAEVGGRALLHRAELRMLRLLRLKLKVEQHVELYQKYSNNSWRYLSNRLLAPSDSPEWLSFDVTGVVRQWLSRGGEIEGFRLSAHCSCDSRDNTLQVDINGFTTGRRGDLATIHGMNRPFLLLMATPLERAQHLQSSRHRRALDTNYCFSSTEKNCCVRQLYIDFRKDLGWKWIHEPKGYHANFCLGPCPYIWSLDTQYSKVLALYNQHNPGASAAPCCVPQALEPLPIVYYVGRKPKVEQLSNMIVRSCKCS
T5 sequence (P01137 other isoform, or with tags, fused parts or gaps K27C Y75C K27C Y75C): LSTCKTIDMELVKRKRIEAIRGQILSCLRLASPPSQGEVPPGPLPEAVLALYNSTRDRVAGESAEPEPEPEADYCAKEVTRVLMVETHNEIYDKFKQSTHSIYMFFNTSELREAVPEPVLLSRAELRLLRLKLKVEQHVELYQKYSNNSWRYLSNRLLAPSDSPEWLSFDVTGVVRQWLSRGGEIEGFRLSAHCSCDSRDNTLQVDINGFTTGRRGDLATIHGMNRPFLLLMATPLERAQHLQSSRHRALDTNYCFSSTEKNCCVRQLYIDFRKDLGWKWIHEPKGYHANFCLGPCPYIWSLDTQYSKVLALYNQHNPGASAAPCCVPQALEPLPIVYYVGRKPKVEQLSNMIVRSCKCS
T3 sequence (P01137 other isoform, or with tags, fused parts or gaps Y74T Y74T): as the sequence (P01137 other isoform, or with tags, fused parts or gaps K27C Y75C K27C Y75C) above, with C27K, Y74T, C75Y counted along it
T6 sequence (P01137 other isoform, or with tags, fused parts or gaps mutant): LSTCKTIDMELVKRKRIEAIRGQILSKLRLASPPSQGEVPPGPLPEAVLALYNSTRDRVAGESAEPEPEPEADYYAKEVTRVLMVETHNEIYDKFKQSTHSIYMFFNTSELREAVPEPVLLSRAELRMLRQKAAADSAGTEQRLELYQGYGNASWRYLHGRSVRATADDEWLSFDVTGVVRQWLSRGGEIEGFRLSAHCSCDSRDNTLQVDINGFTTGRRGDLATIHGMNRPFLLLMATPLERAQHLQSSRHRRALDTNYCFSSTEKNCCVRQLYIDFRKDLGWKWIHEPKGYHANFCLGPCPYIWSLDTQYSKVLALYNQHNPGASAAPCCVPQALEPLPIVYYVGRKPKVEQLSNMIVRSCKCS
T4 sequence (P01137 30-277, change not shown): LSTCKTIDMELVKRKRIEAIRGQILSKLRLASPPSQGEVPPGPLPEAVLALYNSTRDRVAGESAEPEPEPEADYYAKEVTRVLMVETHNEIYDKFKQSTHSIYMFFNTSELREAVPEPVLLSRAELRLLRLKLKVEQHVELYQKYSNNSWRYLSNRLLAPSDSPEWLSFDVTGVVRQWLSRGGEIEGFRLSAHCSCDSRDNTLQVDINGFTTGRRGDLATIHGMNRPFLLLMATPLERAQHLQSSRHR

Binder | IC50 of inhibition of TGFβ1 activation [1] [µg/mL] | binding result [2] | binding result [3] | binding result [4] | binding result [5] | binding result [6] | Kd [7] [nM] | koff [7] [s⁻¹] | kon [7] [M⁻¹ s⁻¹] | Kd [8] [nM] | koff [8] [s⁻¹] | kon [8] [M⁻¹ s⁻¹] | binding result [9]
20E6_H0.2aL1_hIgG1 (antibody, also called 20E6_H0.2aL1_IgG1; humanized 20E6) heavy: not shown light: DIQMTQSPSSLSASVGDRVTITCRASQDITNYLNWYQQKPGKAVKLLIYYTSRLHSGVPSRFSGSGSGTDYTLTISSLQPEDFATYFCQQGDTLPWTFGQGTKLEIKRTVAAPSVFIFPPSDEQLKSGTASVVCLLNNFYPREAKVQWKVDNALQSGNSQESVTEQDSKDSTYSLSSTLTLSKADYEKHKVYACEVTHQGLSSPVTKSFNRGEC | 1.3 | – | – | – | – | – | – | – | – | – | – | – | –
22F9_hIgG1 (antibody, V domains shown) VH: QVQLQQPGAELVKPGASVKLSCKASGYTFTSYWMHWVKQRPGQGLEWIGMIHPNSGSTNYNEKFKSKATLTVDKSSSTAYMQLSSLTSEDSAVYYCAYYDYDGFFDVWGTGTTVTVSS VL: DIVLTQSPASLDVSLGQRATISCRASKSVSTSGYSYMHWYQQKSGQPPKLLIYLASNLESGVPARFSGSGSGTHFTLNIHPVEEEDAATYYCQHSRELPYTFGGGTKLEIK | 1.8 | no binding | no binding | no binding | binds | binds | 0.37 | 0.000444 | 1.21e+06 | 0.76 | 0.000768 | 1.01e+06 | no binding (tested: about 800 ng/well)
